Laboratory results as given in US12384850 (SYSTIMMUNE, dated 2025).
Changes are numbered by the printed parent chain.

B1: SI-27E15 (bispecific antibody, not shown: small tags and cut ends)
heavy (part 1 of 7): DIQMTQSPSTLSASVGDRVTITCQSSQSVYSNWFSWYQQKPGKAPKLLIYSASTLASGVPSRFSGSGSGTEFTLTISSLQPDDFATYYCAGGYNTVIDTFAFGGGTKVEIK
heavy (part 2 of 7): EVQLLESGGGLVQPGGSLRLSCAASGIDFSRRYYMCWVRQAPGKGLEWIACIYTGSRDTPHYASSAKGRFTISRDNSKNTLYLQMNSLRAEDTAVYYCAREGSLWGQGTLVTVSS
heavy (part 3 of 7): not shown
heavy (part 4 of 7): QSLVESGGGLVQPGGSLRLSCTASGFSLSRYYMTWVRQAPGKGLEWIGTIYTSGSTWYASWTKGRFTISKDNTKNTVDLQMNSLRAEDTAVYYCARSYYGGDKTGLGIWGQGTLVTVSS
heavy (part 5 of 7): DIQMTQSPSTLSASVGDRVTITCQASQSIDSWLSWYQQKPGKAPKLLIYQASTLASGVPSRFSGSGSGTEFTLTISSLQPDDFATYYCQSAYGVSGTSSYLYTFGGGTKVEIK
heavy (part 6 of 7): EVQLVESGGGLVQPGGSLRLSCAASGIDLSSNAMSWVRQAPGKGLEWIGVITGRDITYYASWAKGRFTISRDNSKNTLYLQMNSLRAEDTAVYYCARDGGSSAINSKNIWGQGTLVTVSS
heavy (part 7 of 7): DIQMTQSPSTLSASVGDRVTITCQASESISSWLAWYQQKPGKAPKLLIYEASKLASGVPSRFSGSGSGTEFTLTISSLQPDDFATYYCQGYFYFISRTYVNAFGGGTKVEIK
light: DVVMTQTPLSLPVSLGDQASISCRSSQSLVHSNGNTYLRWYLQKPGQSPKVLIYKVSNRFSGVPDRFSGSGSGTDFTLKISRVEAEDLGVYFCSQSTHVPWTFGGGTKLEIKRTVAAPSVFIFPPSDEQLKSGTASVVCLLNNFYPREAKVQWKVDNALQSGNSQESVTEQDSKDSTYSLSSTLTLSKADYEKHKVYACEVTHQGLSSPVTKSFNRGEC
notes: also called control SI-27E15
B2: SI-35E18 (460C3-L1H1-scFv × PL230C6-Fab × 323H7-H4L1-scFv × 284A10-H1L1-scFv) (bispecific antibody, human IgG1, kappa)
heavy: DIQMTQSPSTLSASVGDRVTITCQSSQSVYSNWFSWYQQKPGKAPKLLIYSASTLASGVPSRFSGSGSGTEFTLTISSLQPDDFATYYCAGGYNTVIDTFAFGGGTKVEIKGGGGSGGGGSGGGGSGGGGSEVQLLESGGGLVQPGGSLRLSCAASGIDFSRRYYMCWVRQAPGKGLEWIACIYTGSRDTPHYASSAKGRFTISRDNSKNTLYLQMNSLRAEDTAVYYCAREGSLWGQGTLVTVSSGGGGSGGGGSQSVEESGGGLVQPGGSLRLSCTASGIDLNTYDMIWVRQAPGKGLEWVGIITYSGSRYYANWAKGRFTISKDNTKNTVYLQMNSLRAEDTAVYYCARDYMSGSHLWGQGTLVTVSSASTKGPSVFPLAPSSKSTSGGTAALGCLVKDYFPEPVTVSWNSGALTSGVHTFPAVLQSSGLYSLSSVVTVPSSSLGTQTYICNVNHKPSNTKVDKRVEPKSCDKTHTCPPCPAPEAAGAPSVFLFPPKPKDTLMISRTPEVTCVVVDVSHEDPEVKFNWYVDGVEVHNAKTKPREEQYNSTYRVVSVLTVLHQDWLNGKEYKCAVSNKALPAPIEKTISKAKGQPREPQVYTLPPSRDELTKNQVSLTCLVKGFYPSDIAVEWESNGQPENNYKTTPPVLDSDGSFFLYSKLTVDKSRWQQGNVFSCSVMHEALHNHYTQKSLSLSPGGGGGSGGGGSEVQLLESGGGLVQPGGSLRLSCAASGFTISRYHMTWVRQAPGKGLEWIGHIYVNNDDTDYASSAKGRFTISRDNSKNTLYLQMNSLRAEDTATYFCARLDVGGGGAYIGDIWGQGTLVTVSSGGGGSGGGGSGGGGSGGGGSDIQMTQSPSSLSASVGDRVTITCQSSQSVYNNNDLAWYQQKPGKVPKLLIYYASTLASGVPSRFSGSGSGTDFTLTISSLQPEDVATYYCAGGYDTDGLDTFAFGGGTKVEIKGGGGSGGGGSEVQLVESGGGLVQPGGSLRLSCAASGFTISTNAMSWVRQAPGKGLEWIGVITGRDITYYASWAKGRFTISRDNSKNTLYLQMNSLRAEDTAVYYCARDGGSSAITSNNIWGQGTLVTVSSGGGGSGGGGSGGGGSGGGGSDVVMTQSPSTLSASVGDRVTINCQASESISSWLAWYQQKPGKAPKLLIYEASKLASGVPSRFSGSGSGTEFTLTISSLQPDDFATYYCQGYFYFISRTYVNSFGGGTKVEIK
light: AYDMTQSPSSVSASVGDRVTIKCQASEDIYSFLAWYQQKPGKAPKLLIHSASSLASGVPSRFSGSGSGTDFTLTISSLQPEDFATYYCQQGYGKNNVDNAFGGGTKVEIKRTVAAPSVFIFPPSDEQLKSGTASVVCLLNNFYPREAKVQWKVDNALQSGNSQESVTEQDSKDSTYSLSSTLTLSKADYEKHKVYACEVTHQGLSSPVTKSFNRGEC
notes: Tetra-specific GNC antibody (41BB x PD-L1 x ROR1 x CD3), IgG1 null2 Fc
B3: SI-35E21 (bispecific antibody, not shown: small tags and cut ends)
heavy (part 1 of 7): B1 heavy (part 1 of 7)
heavy (part 2 of 7): B1 heavy (part 2 of 7)
heavy (part 3 of 7): not shown
heavy (part 4 of 7): EVQLVESGGGLVQPGGSLRLSCTASGFSLSSYAMSWVRQAPGRGLEWIGIIYASGSTYYASSAKGRFTISKDNTKNTVDLQMNSLRAEDTAVYYCARIYDGMDLWGQGTLVTVSS
heavy (part 5 of 7): DIQMTQSPSSLSASVGDRVTINCQASQNIYSYLSWYQQKPGKVPKRLIYLASTLASGVPSRFSGSGSGTDYTLTISSLQPEDVATYYCQSNYNGNYGFGGGTKVEIK
heavy (part 6 of 7): B1 heavy (part 6 of 7) with I27F, D28T, L29I, S31T, N105T, K107N
heavy (part 7 of 7): B1 heavy (part 7 of 7) with I2V, Q3V, T22N, A102S
light: B2 light
notes: Tetra-specific; the listing has only VHv3/VLv2
B4: SI-35E23 (bispecific antibody, not shown: small tags and cut ends)
heavy (part 1 of 7): DVVMTQSPSSVSASVGDRVTITCQASQNIRTYLSWYQQKPGKAPKLLIYAAANLASGVPSRFSGSGSGTDFTLTISDLEPGDAATYYCQSTYLGTDYVGGAFGGGTKVEIK
heavy (part 2 of 7): RSLVESGGGLVQPGGSLRLSCTASGFTISSYHMQWVRQAPGKGLEYIGTISSGGNVYYASSARGRFTISRPSSKNTVDLQMNSLRAEDTAVYYCARDSGYSDPMWGQGTLVTVSS
heavy (part 3 of 7): not shown
heavy (part 4 of 7): B3 heavy (part 4 of 7)
heavy (part 5 of 7): B3 heavy (part 5 of 7)
heavy (part 6 of 7): B1 heavy (part 6 of 7) with I27F, D28T, L29I, S31T, N105T, K107N
heavy (part 7 of 7): B1 heavy (part 7 of 7) with I2V, Q3V, T22N, A102S
light: B2 light
notes: as for B3
B5: SI-35E2 (bispecific antibody, not shown: small tags and cut ends)
heavy (part 1 of 7): B1 heavy (part 1 of 7)
heavy (part 2 of 7): B1 heavy (part 2 of 7)
heavy (part 3 of 7): not shown
heavy (part 4 of 7): B1 heavy (part 4 of 7)
heavy (part 5 of 7): B1 heavy (part 5 of 7)
heavy (part 6 of 7): EVKLDETGGGLVQPGRPMKLSCVASGFTFSDYWMNWVRQSPEKGLEWVAQIRNKPYNYETYYSDSVKGRFTISRDDSKSSVYLQMNNLRVEDMGIYYCTGSYYGMDYWGQGTSVTVSS
heavy (part 7 of 7): DVVMTQTPLSLPVSLGDQASISCRSSQSLVHSNGNTYLRWYLQKPGQSPKVLIYKVSNRFSGVPDRFSGSGSGTDFTLKISRVEAEDLGVYFCSQSTHVPWTFGGGTKLEIK
light: B2 light
notes: the listing has only VHv3/VLv2
B6: SI-35E22 (bispecific antibody, not shown: small tags and cut ends)
heavy (part 1 of 7): ALVMTQSPSTLSASVGDRVTINCQASEDIDTYLAWYQQKPGKAPKLLIFYASDLASGVPSRFSGSGSGTEFTLTISSLQPDDFATYYCQGGYYTSSADTRGAFGGGTKVEIK
heavy (part 2 of 7): QSLVESGGGLVQPGGSLRLSCAASGFSFSSNYWICWVRQAPGKGLEWIACIYVGSSGDTYYASSAKGRFTISRDNSKNTLYLQMNSLRAEDTAVYYCARDSSSYYMFNLWGQGTLVTVSS
heavy (part 3 of 7): not shown
heavy (part 4 of 7): B3 heavy (part 4 of 7)
heavy (part 5 of 7): B3 heavy (part 5 of 7)
heavy (part 6 of 7): B1 heavy (part 6 of 7) with I27F, D28T, L29I, S31T, N105T, K107N
heavy (part 7 of 7): B1 heavy (part 7 of 7) with I2V, Q3V, T22N, A102S
light: B2 light
notes: as for B3
B7: SI-27E13 (bispecific antibody, not shown: small tags and cut ends)
heavy (part 1 of 7): B1 heavy (part 1 of 7)
heavy (part 2 of 7): B1 heavy (part 2 of 7)
heavy (part 3 of 7): not shown
heavy (part 4 of 7): B5 heavy (part 6 of 7)
heavy (part 5 of 7): B5 heavy (part 7 of 7)
heavy (part 6 of 7): B1 heavy (part 6 of 7)
heavy (part 7 of 7): B1 heavy (part 7 of 7)
light: B2 light
notes: as for B5
B8: SI-27E12 (bispecific antibody, not shown: small tags and cut ends)
heavy (part 1 of 7): B5 heavy (part 7 of 7)
heavy (part 2 of 7): B5 heavy (part 6 of 7)
heavy (part 3 of 7): not shown
heavy (part 4 of 7): B1 heavy (part 4 of 7)
heavy (part 5 of 7): B1 heavy (part 5 of 7)
heavy (part 6 of 7): B1 heavy (part 6 of 7)
heavy (part 7 of 7): B1 heavy (part 7 of 7)
light: B2 light
notes: the listing has only VHv3/VLv2; also called control SI-27E12

Biological target: T1, human 41BB (human, UniProt Q07011 24-255)
T1 construct: whole, on cells; also called 41BB expressing CHO cells; human 41BB transfected CHO cells
Assay: FACS on human 41BB transfected CHO cells
Procedure: (§1) Example 2: FACS Analysis of Tetra-Specific GNC Antibody Binding to Human 41BB Transfected CHO Cells The tetra-specific GNC antibodies listed in TABLEs 3 and 4 were tested for binding to Chinese hamster ovary cells (CHO) cells stably expressing a full-length human ROR1. Antibodies were prepared at 2× final concentration and titrated 1:5 across 3 wells of a 96 well plate in 50 ul of PBS/2% FBS and then 5,000 ROR1-CHO cells in 50 ul PBS/2% FBS were added. This mixture was incubated for 30 minutes on ice, washed once with 200 ul PBS/2% FBS, and then the secondary antibody PE Goat anti-Human IgG Fc at 1:1000 dilution of stock was added, and this mixture was incubated for 30 minutes on ice. Cells were washed 2×200 ul PBS/2% FBS, resuspended in 50 ul PBS/2% FBS and analyzed on a BD LSRFORTESSA and the binding profile is shown in FIG. 5. All of the tetra-specific GNC antibodies except for the control SI-27E12 contain a 41BB binding domain, 460C3, 420H5, or 466F6 and bound to 41BB expressing CHO cells with varying intensity.

T1 sequence (Q07011 24-255): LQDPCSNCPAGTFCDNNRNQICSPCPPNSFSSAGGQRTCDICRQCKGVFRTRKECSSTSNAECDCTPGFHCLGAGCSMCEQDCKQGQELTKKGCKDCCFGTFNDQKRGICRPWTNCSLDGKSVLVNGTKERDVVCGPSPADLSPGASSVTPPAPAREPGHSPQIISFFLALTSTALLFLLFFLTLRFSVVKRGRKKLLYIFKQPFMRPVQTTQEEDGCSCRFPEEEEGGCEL

Binder	binding result
B1	binds
B2	binds
B3	binds
B4	binds
B5	binds
B6	binds
B7	binds

Biological target: T2, full-length human ROR1 (human, UniProt Q01973 30-937)
T2 construct: whole, on cells; also called human ROR1 transfected CHO cells; ROR1-CHO cells
Assay: FACS on CHO cells stably expressing full-length human ROR1
Procedure: as §1, with “Example 1:” for “Example 2:”, “Tetra-Specific Specific” for “Tetra-Specific GNC”, “Human ROR1” for “Human 41BB”, “FIG. 4.” for “FIG. 5. All of the tetra-specific GNC antibodies except for the control SI-27E12 contain a 41BB binding domain, 460C3, 420H5, or 466F6 and bound to 41BB expressing CHO cells with varying intensity.”

T2 sequence (Q01973 30-937): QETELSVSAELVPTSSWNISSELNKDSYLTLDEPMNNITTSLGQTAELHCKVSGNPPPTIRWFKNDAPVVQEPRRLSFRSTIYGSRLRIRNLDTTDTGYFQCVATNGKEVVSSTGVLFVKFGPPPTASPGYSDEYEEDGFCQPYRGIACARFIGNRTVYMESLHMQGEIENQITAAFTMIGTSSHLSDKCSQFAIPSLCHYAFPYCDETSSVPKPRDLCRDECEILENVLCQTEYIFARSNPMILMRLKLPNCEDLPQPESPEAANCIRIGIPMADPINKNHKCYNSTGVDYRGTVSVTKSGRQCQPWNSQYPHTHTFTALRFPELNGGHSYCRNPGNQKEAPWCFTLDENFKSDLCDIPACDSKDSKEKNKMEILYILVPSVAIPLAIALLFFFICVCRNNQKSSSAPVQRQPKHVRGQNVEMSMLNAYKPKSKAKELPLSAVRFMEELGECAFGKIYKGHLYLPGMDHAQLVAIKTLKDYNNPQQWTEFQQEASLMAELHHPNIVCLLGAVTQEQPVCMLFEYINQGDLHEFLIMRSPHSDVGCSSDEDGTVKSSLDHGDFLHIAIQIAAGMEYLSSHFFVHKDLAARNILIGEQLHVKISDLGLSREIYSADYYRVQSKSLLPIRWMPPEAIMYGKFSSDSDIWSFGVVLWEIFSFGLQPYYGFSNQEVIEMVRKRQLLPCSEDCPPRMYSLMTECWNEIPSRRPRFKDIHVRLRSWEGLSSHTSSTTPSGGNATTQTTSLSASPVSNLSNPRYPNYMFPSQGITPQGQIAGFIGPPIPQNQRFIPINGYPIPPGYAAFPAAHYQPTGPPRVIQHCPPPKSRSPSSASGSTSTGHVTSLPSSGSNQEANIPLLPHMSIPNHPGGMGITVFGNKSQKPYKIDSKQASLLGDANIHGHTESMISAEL

Binder	binding result
B2	binds
B3	binds
B4	binds
B6	binds

Biological target: T3, human PD-L1 (human, UniProt Q9NZQ7 19-290)
T3 construct: whole, on cells; also called PDL1 expressing CHO cells; human PD-L1 transfected CHO cells
Assay: FACS on human PD-L1 transfected CHO cells
Procedure: as §1, with “3:” for “2:”, “PDL1” for “41BB”, “[…]” for “a full-length”, “6.” for “5. All of the tetra-specific GNC antibodies except for the control SI-27E12 contain a 41BB binding domain, 460C3, 420H5, or 466F6 and bound to 41BB expressing CHO cells with varying intensity.”

T3 sequence (Q9NZQ7 19-290): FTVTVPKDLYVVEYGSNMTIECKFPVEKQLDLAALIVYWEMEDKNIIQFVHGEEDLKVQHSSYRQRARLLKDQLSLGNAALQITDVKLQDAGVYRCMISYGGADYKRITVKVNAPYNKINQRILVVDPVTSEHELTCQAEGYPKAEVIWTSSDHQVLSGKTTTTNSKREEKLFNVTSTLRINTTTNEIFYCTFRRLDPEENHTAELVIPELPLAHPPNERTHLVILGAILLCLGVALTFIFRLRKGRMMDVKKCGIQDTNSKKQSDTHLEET

Binder	binding result
B2	binds
B3	binds
B8	binds
B4	binds
B5	binds
B6	binds
B7	binds
